Source: US20250109206A1 (CENTESSA PHARMACEUTICALS UK, published 2025)
Positions count from the first letter of the chain named. Names may count otherwise.

T1: Cyno PD-L1 (cynomolgus, UniProt Q9NZQ7 19-127 (human entry), limits assumed)
T1 construct: also called cynomolgus PD-L1
T1 chain: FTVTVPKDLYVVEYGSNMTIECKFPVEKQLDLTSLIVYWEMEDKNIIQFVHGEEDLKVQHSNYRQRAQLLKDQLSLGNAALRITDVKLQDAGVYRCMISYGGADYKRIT

B1: Anti-PD-L1 Fab mut-03 (S104W) (Fab, V domains shown)
VH: QVQLVQSGAEVKKPGSSVKVSCKTSGDTFSTYAISWVRQAPGQGLEWMGGIIPIFGKAHYAQKFQGRVTITADESTSTAYMELSSLRSEDTAVYFCARKFHFVWGSPFGMDVWGQGTTVTVSS
VL: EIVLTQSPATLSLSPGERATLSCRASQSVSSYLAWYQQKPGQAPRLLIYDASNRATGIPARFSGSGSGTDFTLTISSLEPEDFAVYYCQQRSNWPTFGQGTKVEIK
notes: Fab format; VH variant with WT VL; constant domains of the Fab not specified; also called mut-3
B2: Anti-PD-L1 Fab mut-52 (S104R, G56Q) (Fab, V domains shown)
VH: B1 VH with G56Q, W104R
VL: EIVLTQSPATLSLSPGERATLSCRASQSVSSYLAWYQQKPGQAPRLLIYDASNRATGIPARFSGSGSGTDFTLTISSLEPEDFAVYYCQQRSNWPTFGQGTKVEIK
notes: Fab format; VH variant with WT VL; constant domains of the Fab not specified
B3: Anti-PD-L1 Fab mut-28 (S104N) (Fab, V domains shown)
VH: B1 VH with W104N
VL: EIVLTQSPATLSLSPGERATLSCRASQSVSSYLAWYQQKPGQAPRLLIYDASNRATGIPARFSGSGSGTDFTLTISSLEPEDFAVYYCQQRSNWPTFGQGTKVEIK
notes: as for B2
B4: Anti-PD-L1 Fab mut-07 (I54W) (Fab, V domains shown)
VH: B1 VH with I54W, W104S
VL: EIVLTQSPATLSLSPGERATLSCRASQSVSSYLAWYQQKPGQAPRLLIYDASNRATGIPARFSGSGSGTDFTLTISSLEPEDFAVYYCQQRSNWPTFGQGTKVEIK
notes: Fab format; VH variant with WT VL; constant domains of the Fab not specified; also called mut-7
B5: Anti-PD-L1 Fab mut-14 (S104D) (Fab, V domains shown)
VH: B1 VH with W104D
VL: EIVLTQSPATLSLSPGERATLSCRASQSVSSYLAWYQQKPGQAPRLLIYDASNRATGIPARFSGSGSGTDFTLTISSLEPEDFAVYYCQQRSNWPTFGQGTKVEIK
notes: as for B2
B6: Anti-PD-L1 Fab mut-08 (K57R) (Fab, V domains shown)
VH: B1 VH with K57R, W104S
VL: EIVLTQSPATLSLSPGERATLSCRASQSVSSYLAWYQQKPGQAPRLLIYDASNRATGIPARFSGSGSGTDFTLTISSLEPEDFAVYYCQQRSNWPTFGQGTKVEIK
notes: Fab format; VH variant with WT VL; constant domains of the Fab not specified; also called mut-8
B7: Anti-PD-L1 Fab mut-48 (T31Q) (Fab, V domains shown)
VH: B1 VH with T31Q, W104S
VL: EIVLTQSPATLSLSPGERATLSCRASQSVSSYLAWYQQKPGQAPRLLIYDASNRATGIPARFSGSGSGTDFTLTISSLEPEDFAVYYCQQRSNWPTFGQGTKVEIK
notes: as for B2
B8: Anti-PD-L1 Fab mut-34 (K57M) (Fab, V domains shown)
VH: B1 VH with K57M, W104S
VL: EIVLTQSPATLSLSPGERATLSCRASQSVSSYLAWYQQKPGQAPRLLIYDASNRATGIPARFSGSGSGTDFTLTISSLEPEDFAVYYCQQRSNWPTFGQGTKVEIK
notes: as for B2
B9: Anti-PD-L1 Fab mut-54 (G56Q, T31Q) (Fab, V domains shown)
VH: B1 VH with T31Q, G56Q, W104S
VL: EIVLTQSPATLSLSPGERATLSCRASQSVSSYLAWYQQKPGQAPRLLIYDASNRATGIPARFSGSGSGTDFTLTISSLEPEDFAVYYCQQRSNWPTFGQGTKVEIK
notes: as for B2
B10: Anti-PD-L1 Fab mut-06 (S104R) (Fab, V domains shown)
VH: B1 VH with W104R
VL: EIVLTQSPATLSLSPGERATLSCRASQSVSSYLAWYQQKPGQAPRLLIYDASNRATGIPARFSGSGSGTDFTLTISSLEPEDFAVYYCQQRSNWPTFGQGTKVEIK
notes: Fab format; VH variant with WT VL; constant domains of the Fab not specified; also called mut-6; Mut-6
B11: Anti-PD-L1 Fab mut-22 (A33H) (Fab, V domains shown)
VH: B1 VH with A33H, W104S
VL: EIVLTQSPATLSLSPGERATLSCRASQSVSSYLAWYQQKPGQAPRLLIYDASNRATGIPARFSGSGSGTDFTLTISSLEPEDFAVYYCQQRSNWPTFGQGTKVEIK
notes: as for B2
B12: Anti-PD-L1 Fab mut-50 (Q62E) (Fab, V domains shown)
VH: B1 VH with Q62E, W104S
VL: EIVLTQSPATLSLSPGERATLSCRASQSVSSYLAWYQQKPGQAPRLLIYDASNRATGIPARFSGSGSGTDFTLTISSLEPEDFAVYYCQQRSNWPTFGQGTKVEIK
notes: as for B2
B13: Anti-PD-L1 Fab mut-43 (G56Q) (Fab, V domains shown)
VH: B1 VH with G56Q, W104S
VL: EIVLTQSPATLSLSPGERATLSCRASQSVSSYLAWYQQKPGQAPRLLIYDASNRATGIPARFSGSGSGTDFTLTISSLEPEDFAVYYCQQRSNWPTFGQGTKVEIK
notes: as for B2
B14: Anti-PD-L1 Fab mut-23 (G56H) (Fab, V domains shown)
VH: B1 VH with G56H, W104S
VL: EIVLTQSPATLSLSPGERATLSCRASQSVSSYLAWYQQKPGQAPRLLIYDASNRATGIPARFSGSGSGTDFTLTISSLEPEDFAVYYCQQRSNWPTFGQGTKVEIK
notes: as for B2
B15: Anti-PD-L1 Fab mut-49 (G56N) (Fab, V domains shown)
VH: B1 VH with G56N, W104S
VL: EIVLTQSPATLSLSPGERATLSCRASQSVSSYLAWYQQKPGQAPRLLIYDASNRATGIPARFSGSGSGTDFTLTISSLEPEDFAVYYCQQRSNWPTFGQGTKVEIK
notes: as for B2
B16: Anti-PD-L1 Fab mut-42 (I54Q) (Fab, V domains shown)
VH: B1 VH with I54Q, W104S
VL: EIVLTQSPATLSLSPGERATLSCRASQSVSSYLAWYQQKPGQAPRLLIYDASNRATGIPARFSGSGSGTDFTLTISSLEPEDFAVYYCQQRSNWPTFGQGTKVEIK
notes: as for B2
B17: Anti-PD-L1 Fab mut-51 (S104R, G56Q, T31Q) (Fab, V domains shown)
VH: B1 VH with T31Q, G56Q, W104R
VL: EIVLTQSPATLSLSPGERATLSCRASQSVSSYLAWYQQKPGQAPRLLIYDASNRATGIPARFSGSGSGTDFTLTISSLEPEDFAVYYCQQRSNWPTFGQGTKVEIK
notes: as for B2
B18: Anti-PD-L1 Fab mut-47 (T31R) (Fab, V domains shown)
VH: B1 VH with T31R, W104S
VL: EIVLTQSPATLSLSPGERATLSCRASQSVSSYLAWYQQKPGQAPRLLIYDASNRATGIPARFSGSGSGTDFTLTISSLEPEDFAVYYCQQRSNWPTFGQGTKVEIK
notes: as for B2
B19: Anti-PD-L1 Fab mut-15 (K57W) (Fab, V domains shown)
VH: B1 VH with K57W, W104S
VL: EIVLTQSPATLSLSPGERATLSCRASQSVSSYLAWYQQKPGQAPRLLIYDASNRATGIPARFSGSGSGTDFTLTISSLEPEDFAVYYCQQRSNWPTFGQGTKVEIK
notes: as for B2
B20: Anti-PD-L1 Fab mut-04 (I54K) (Fab, V domains shown)
VH: B1 VH with I54K, W104S
VL: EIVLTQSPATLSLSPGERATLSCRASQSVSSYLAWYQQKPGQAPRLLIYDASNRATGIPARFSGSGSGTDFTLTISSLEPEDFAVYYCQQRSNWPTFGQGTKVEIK
notes: Fab format; VH variant with WT VL; constant domains of the Fab not specified; also called mut-4
B21: Anti-PD-L1 Fab mut-44 (I52F) (Fab, V domains shown)
VH: B1 VH with I52F, W104S
VL: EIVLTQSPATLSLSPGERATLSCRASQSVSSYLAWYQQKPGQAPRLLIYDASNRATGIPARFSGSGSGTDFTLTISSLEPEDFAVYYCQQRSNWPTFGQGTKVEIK
notes: as for B2
B22: Anti-PD-L1 Fab mut-20 (I54Y) (Fab, V domains shown)
VH: B1 VH with I54Y, W104S
VL: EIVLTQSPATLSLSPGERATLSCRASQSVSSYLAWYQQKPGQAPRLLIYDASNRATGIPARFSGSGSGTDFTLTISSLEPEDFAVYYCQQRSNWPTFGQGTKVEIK
notes: as for B2
B23: Anti-PD-L1 Fab mut-46 (I54R) (Fab, V domains shown)
VH: B1 VH with I54R, W104S
VL: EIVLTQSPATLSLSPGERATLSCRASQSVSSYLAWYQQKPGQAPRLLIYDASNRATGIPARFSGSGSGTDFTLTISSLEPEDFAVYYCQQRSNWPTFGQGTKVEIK
notes: as for B2
B24: Anti-PD-L1 Fab mut-27 (K57D) (Fab, V domains shown)
VH: B1 VH with K57D, W104S
VL: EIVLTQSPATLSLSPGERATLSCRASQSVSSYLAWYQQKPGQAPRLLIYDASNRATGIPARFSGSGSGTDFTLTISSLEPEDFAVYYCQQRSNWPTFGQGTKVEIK
notes: as for B2
B25: Anti-PD-L1 Fab mut-39 (K57F) (Fab, V domains shown)
VH: B1 VH with K57F, W104S
VL: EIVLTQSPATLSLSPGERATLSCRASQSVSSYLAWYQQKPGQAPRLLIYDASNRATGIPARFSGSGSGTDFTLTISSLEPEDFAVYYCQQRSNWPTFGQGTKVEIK
notes: as for B2
B26: Anti-PD-L1 Fab mut-53 (S104R, T31Q) (Fab, V domains shown)
VH: B1 VH with T31Q, W104R
VL: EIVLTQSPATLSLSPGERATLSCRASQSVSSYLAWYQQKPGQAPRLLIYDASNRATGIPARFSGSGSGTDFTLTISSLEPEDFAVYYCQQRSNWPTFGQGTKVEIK
notes: as for B2
B27: CD3-IgG-001 (antibody, V domains shown)
VH: EVQLVESGGGLVQPGGSLRLSCAASGFTFNTYAMNWVRQAPGKGLEWVARIRSKYNNYATYYADSVKDRFTISRDDSQSILYLQMNSLKTEDTAVYYCVRHGNFGNSYVSWFAYWGQGTLVTVSS
VL: QAVVTQEPSLTVSPGGTVTLTCRSSTGAVTTSNYANWVQQKPDHLPRALIGGTNKRAPGTPARFSGSLLGDKAALTLSGVQPEDEAEYYCALWYSNLWVFGGGTKLTVL
B28: CD3-IgG-002 (antibody, V domains shown)
VH: B27 VH with A49G, D68G, Q78K, S79N, I80S, V99A
VL: B27 VL with T60V, L77I, V80A, E87I
B29: mouse SP34 IgG (antibody, V domains shown)
VH: B27 VH with G15K, R19K, S87N, V95M
VL: QAVVTQESALTTSPGETVTLTCRSSTGAVTTSNYANWVQEKPDHLFTGLIGGTNKRAPGVPARFSGSLIGDKAALTITGAQTEDEAIYFCALWYSNLWVFGGGTKLTVL
B30: LB218 (intact) (bispecific antibody, human IgG1, kappa, lambda)
heavy: not shown
light: not shown
chain: SCPPCPAPEAAGAPSVFLFPPKPKDTLMISRTPEVTCVVVDVSHEDPEVKFNWYVDGVEVHNAKTKPREEQYNSTYRVVSVLTVLHQDWLNGKEYKCKVSNKALPAPIEKTISKAKGQPREPQVCTLPPSRDELTKNQVSLSCAVKGFYPSDIAVEWESNGQPENNYKTTPPVLDSDGSFFLVSKLTVDKSRWQQGNVFSCSVMHEALHNHYTQKSLSLSPGK
notes: Asymmetric LockBody, uncleaved; also called intact LB218
B31: LB213 (intact) (bispecific antibody, human IgG1, kappa, lambda)
heavy: not shown
light: not shown
chain: B30 chain
notes: Asymmetric LockBody, uncleaved; also called intact LB213
B32: LB218 after incubation with MMP12 (bispecific antibody)
heavy: not shown
light: not shown
chain: B30 chain
notes: Digest of LB218 with human MMP12; a mixture of products; also called MMP12 treated LB218; digested LB218
B33: LB213 after incubation with MMP12 (bispecific antibody)
heavy: not shown
light: not shown
chain: B30 chain
notes: Digest of LB213 with human MMP12; a mixture of products; also called MMP12 treated LB213; digested LB213

What follows are binders tested against T2, Human PD-L1 (human, UniProt Q9NZQ7 19-127, limits assumed) (assay: SPR, Fab).
T2 construct: also called huPD-L1; hPD-L1

Row | Kd [nM] | Binder
1 | 1.1 | B1
2 | 0.0214 | B2
3 | 0.501 | B3
4 | 4.25 | B4
5 | 3.36 | B5
6 | 0.489 | B6
7 | 0.249 | B7
8 | 3.58 | B8
9 | 0.0722 | B9
10 | 0.0857 | B10
11 | 1.84 | B11
12 | 0.124 | B12
13 | 0.204 | B13
14 | 0.195 | B14
15 | 0.224 | B15
16 | 3.99 | B16
17 | 0.0157 | B17
18 | 0.594 | B18
19 | 1.69 | B19
20 | 0.857 | B20
21 | 0.542 | B21
22 | 0.875 | B22
23 | 1.04 | B23
24 | 5.58 | B24
25 | 1.54 | B25
26 | 0.0217 | B26

Biological target: T1, Cyno PD-L1
Assay: SPR, Fab

Row | Kd [nM] | binding result | Binder
27 | 13.6 |  | B1
28 | 0.298 |  | B2
29 | 5.51 |  | B3
30 | 143 |  | B4
31 | 29.3 |  | B5
32 | 6.48 |  | B6
33 | 3.24 |  | B7
34 | 5.82 |  | B8
35 | 0.631 |  | B9
36 | 2.86 |  | B10
37 | 20 |  | B11
38 | 4.82 |  | B12
39 | 2.73 |  | B13
40 | 3.02 |  | B14
41 | 3.53 |  | B15
42 | 5.98 |  | B16
43 | 0.18 |  | B17
44 | 9.32 |  | B18
45 | 10.5 |  | B19
46 | 10.8 |  | B20
47 | 6.85 |  | B21
48 | 15.9 |  | B22
49 | 12.7 |  | B23
50 |  | no binding | B24
51 | 3.96 |  | B25
52 | 0.288 |  | B26

These binders were tested against human CD3 on Jurkat cells (human, UniProt P07766 23-207) (assay: cell-based or functional assay).
Sequence of human CD3 on Jurkat cells (P07766 23-207): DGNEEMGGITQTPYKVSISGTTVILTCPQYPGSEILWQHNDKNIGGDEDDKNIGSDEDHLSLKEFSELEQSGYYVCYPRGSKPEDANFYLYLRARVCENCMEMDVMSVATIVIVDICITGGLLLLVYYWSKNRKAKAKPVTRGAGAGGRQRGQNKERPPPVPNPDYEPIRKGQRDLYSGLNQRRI

Row | EC50, CD3 activation signal in Jurkat reporter cell line (luciferase) [nM] | fold difference of apparent EC50 against SP34 / Anti-CD3-IgG-001, Jurkat reporter [fold] | Binder
53 | 0.2 |  | B27
54 | 0.9 | ~5 | B28
55 | 0.2 |  | B29

Each binder was assayed against T2, Human PD-L1 (assay: ELISA on plate-coated human PD-L1, corrected absorbance 450-570 nm).
Protocol: For ELISA binding assays, 384 well or 96 well plates were coated with […] and incubated overnight at 4° C., protected from light. Plates were washed twice with PBS/0.05% Tween 20 before blocking with block buffer (3% milk protein in PBS) for 1 hour at room temperature. Next, test agent or controls were loaded and incubated for 1 hour at room temperature. Plates were then washed three times with PBS/0.05% Tween 20. Finally, HRP conjugated secondary antibody, diluted 1/5,000 in block buffer, was added and incubated for 1 hour at room temperature. Plates were again washed three times with PBS/0.05% Tween before addition of TMB substrate and incubation for 6 minutes at room temperature. Subsequently, the reaction was stopped with stop solution. Absorbance was read at 450 nm and 570 nm. Absorbance at 570 nm was subtracted from absorbance at 450 nm for each plate.

Row | EC50 (read off the curve) [nM] | Binder
56 | ~0.2 | B30
57 | ~0.2 | B31

These binders were tested against T2, Human PD-L1 (assay: ELISA on plate-coated human PD-L1, sample pre-incubated with MMP12 for 5 min).

Row | EC50 (read off the curve) [nM] | Binder
58 | ~0.1 | B32

Biological target: T2, Human PD-L1
Assay: as above
Remark: another data set of the same source

Row | EC50 (read off the curve) [nM] | Binder
59 | ~0.2 | B33

The binders below were run against T2, Human PD-L1 (assay: ELISA on plate-coated human PD-L1, sample pre-incubated with MMP12 for 15 min).

Row | EC50 (read off the curve) [nM] | Binder
60 | ~0.2 | B32

These binders were tested against T2, Human PD-L1 (assay: ELISA on plate-coated human PD-L1, sample pre-incubated with MMP12 for 30 min).

Row | EC50 (read off the curve) [nM] | Binder
61 | ~0.5 | B32

These binders were tested against T2, Human PD-L1 (assay: ELISA on plate-coated human PD-L1, sample pre-incubated with MMP12 for 60 min).

Row | EC50 (read off the curve) [nM] | Binder
62 | ~0.7 | B32

Biological target: T2, Human PD-L1
Assay: ELISA on plate-coated human PD-L1, sample pre-incubated with MMP12 for 15 min
Remark: another data set of the same source

Row | EC50 (read off the curve) [nM] | Binder
63 | ~0.2 | B33

Biological target: T2, Human PD-L1
Assay: ELISA on plate-coated human PD-L1, sample pre-incubated with MMP12 for 30 min
Remark: another data set of the same source

Row | EC50 (read off the curve) [nM] | Binder
64 | ~0.3 | B33

Biological target: T2, Human PD-L1
Assay: ELISA on plate-coated human PD-L1, sample pre-incubated with MMP12 for 60 min
Remark: another data set of the same source

Row | EC50 (read off the curve) [nM] | Binder
65 | ~0.5 | B33
